Molecular target: T1, eCK8 (Homo sapiens, UniProt P05787)
T1 construct: methods to investigate on CK8 cellular expression at the cell surface analysed by flow cytometry; endogenous in cells
T1 sequence (P05787 1-483): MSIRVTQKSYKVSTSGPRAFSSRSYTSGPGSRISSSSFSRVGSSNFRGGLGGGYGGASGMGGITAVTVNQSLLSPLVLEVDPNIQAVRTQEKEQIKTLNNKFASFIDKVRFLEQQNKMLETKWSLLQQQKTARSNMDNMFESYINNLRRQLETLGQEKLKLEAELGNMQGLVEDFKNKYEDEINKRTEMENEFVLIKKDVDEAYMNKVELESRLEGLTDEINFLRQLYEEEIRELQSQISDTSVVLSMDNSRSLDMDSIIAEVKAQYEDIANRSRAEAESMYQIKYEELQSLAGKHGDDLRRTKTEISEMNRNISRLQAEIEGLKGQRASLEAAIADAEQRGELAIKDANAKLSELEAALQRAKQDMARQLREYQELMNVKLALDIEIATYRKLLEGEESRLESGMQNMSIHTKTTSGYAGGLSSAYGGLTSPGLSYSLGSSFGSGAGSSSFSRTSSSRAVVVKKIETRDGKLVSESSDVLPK
Test: Antibody binding assay by flow cytometry (eCK8 expression on solid tumour cell lines)
Settings: MAb 5 μg/mL, mean ± SD
Protocol: Cell lines. The established human neuroglioma cells H4, HS683, U373 or A172 (available from ATCC); the established human colorectal cells HT29; the established human pancreatic cells PANC1 or MIA-PA-CA2; the established human kidney adenocarcinoma cells A704 or ACHN and the established human lung adenocarcinoma cells A549 were grown in Dulbecco's Modified Eagle's Medium (Sigma, St Quentin Fallavier, France) supplemented with 10% heat-inactivated foetal bovine serum (FBS) (Sigma, St Quentin Fallavier, France), […] L-glutamine (Sigma, St Quentin Fallavier, France) and 100 U/mL, 100 μg/mL penicillin-streptomycin (Sigma, St Quentin Fallavier, France). The established human glioblastoma astrocytoma cells U87MG or T98G, the human head and neck cancer cells FaDu or Detroit562, the human urinary cancer cells UM-UC-3, J82, HT1197 or HT1376 and the human prostate cancer cells DU145 were grown in Eagle's Minimum Essential Medium (Sigma, St Quentin Fallavier, France) supplemented with 10% heat-inactivated fetal bovine serum (FBS) (Sigma, St Quentin Fallavier, France), […] L-glutamine (Sigma, St Quentin Fallavier, France) and 100 U/mL, 100 μg/mL penicillin-streptomycin (Sigma, St Quentin Fallavier, France). The established human breast adenocarcinoma cells MDAMB231, MCF-7 or HBL100 and the human colorectal cancer cells HCT116 were grown in Dulbecco's Modified Eagle's Medium Glutamax Low Glucose (Life Technologies, St Aubin, France) supplemented with 10% heat-inactivated fetal bovine serum (FBS) (Sigma, St Quentin Fallavier, France), […] L-glutamine (Sigma, St Quentin Fallavier, France) and 100 U/mL, 100 μg/mL penicillin-streptomycin (Sigma, St Quentin Fallavier, France).The established human colorectal cells HCT15 or SW480 and the human head and neck cancer cells TR146 were grown in Dulbecco's Modified Eagle's Medium Glutamax High Glucose (Life Technologies, St Aubin, France) supplemented with 10% heat-inactivated fetal bovine serum (FBS) (Sigma, St Quentin Fallavier, France) and 100 U/mL, 100 μg/mL penicillin-streptomycin (Sigma, St Quentin Fallavier, France). The established human head and neck cancer cells BICR16, BICR18 or BICR56 were grown in Dulbecco's Modified Eagle's Medium (Sigma, St Quentin Fallavier, France) supplemented with 10% heat-inactivated foetal bovine serum (FBS) (Sigma, St Quentin Fallavier, France), […] L-glutamine (Sigma, St Quentin Fallavier, France), 100 U/mL, 100 μg/mL penicillin-streptomycin (Sigma, St Quentin Fallavier, France) and 0.4 μg/mL hydrocortisone (Sigma, St Quentin Fallavier, France). The established human head and neck cancer cells SCC9, SCC4 or SCC15 were grown in Dulbecco's Modified Eagle's Medium/F12 (Life Technologies, St Aubin, France) supplemented with 10% heat-inactivated foetal bovine serum (FBS) (Sigma, St Quentin Fallavier, France), […] L-glutamine (Sigma, St Quentin Fallavier, France), 100 U/mL, 100 μg/mL penicillin-streptomycin (Sigma, St Quentin Fallavier, France) and 0,4 μg/mL hydrocortisone (Sigma, St Quentin Fallavier, France). The established human urinary bladder carcinoma cells 5637, the human prostate cancer cells LNCap clone FGC, the established human lung adenocarcinoma cells NCIH1703 or NCIH292, the human pancreatic cancer cells PSN1 or BxPC3 and the human kidney adenocarcinoma cells Caki1 were grown in RPMI-1640 Medium (Sigma, St Quentin Fallavier, France) supplemented with 10% heat-inactivated fetal bovine serum (FBS) (Sigma, St Quentin Fallavier, France), […] L-glutamine (Sigma, St Quentin Fallavier, France) and 100 U/mL, 100 μg/mL penicillin-streptomycin (Sigma, St Quentin Fallavier, France). […]

[1] = Detroit562 cell line (Head & Neck)
[2] = LNCaP clone FGC cell line (Prostate)
[3] = MIA-Pa-Ca-2 cell line (Pancreatic)

% labelled cells (8-MG-BA cell line (GBM)): 72 ± 11%
MFI (8-MG-BA cell line (GBM)): 261 ± 38
% labelled cells (42-MG-BA cell line (GBM)): 54 ± 7%
MFI (42-MG-BA cell line (GBM)): 247 ± 44
% labelled cells (5637 cell line (Urinary)): 59 ± 20%
MFI (5637 cell line (Urinary)): 284 ± 61
% labelled cells (A172 cell line (GBM)): 35 ± 23%
MFI (A172 cell line (GBM)): 186 ± 14
% labelled cells (A549 cell line (Lung)): 36 ± 12%
MFI (A549 cell line (Lung)): 193 ± 38
% labelled cells (A704 cell line (Renal)): 37 ± 26%
MFI (A704 cell line (Renal)): 184 ± 30
% labelled cells (ACHN cell line (Renal)): 46 ± 20%
MFI (ACHN cell line (Renal)): 195 ± 20
% labelled cells (AsPC-1 cell line (Pancreatic)): 26 ± 14%
MFI (AsPC-1 cell line (Pancreatic)): 181 ± 17
% labelled cells (BICR16 cell line (Head & Neck)): 52 ± 2%
MFI (BICR16 cell line (Head & Neck)): 206 ± 10
% labelled cells (BICR18 cell line (Head & Neck)): 79 ± 9%
MFI (BICR18 cell line (Head & Neck)): 257 ± 23
% labelled cells (BICR56 cell line (Head & Neck)): 39 ± 34%
MFI (BICR56 cell line (Head & Neck)): 123 ± 4
% labelled cells (BxPC-3 cell line (Pancreatic)): 41 ± 17%
MFI (BxPC-3 cell line (Pancreatic)): 220 ± 17
% labelled cells (CFPAC-1 cell line (Pancreatic)): 62 ± 4%
MFI (CFPAC-1 cell line (Pancreatic)): 279 ± 25
% labelled cells (Caki1 cell line (Renal)): 49 ± 12%
MFI (Caki1 cell line (Renal)): 267 ± 36
% labelled cells (DU145 cell line (Prostate)): 19 ± 11%
MFI (DU145 cell line (Prostate)): 185 ± 42
% labelled cells [1]: 36 ± 0%
MFI [1]: 203 ± 15
% labelled cells (FaDu cell line (Head & Neck)): 56 ± 8%
MFI (FaDu cell line (Head & Neck)): 258 ± 20
% labelled cells (H4 cell line (GBM)): 58 ± 33%
MFI (H4 cell line (GBM)): 199 ± 40
% labelled cells (HBL100 cell line (Breast)): 67 ± 8%
MFI (HBL100 cell line (Breast)): 219 ± 6
% labelled cells (HCT116 cell line (Colon)): 64 ± 0%
MFI (HCT116 cell line (Colon)): 283 ± 16
% labelled cells (HS683 cell line (GBM)): 54 ± 9%
MFI (HS683 cell line (GBM)): 225 ± 24
% labelled cells (HT29 cell line (Colon)): 49 ± 9%
MFI (HT29 cell line (Colon)): 203 ± 22
% labelled cells (HT1197 cell line (Urinary)): 23 ± 7%
MFI (HT1197 cell line (Urinary)): 240 ± 4
% labelled cells (HT1376 cell line (Urinary)): 53 ± 3%
MFI (HT1376 cell line (Urinary)): 497 ± 11
% labelled cells (HuP-T3 cell line (Pancreatic)): 62 ± 17%
MFI (HuP-T3 cell line (Pancreatic)): 260 ± 20
% labelled cells (J82 cell line (Urinary)): 68 ± 9%
MFI (J82 cell line (Urinary)): 319 ± 4
% labelled cells [2]: 76 ± 9%
MFI [2]: 412 ± 21
% labelled cells (MCF-7 cell line (Breast)): 56 ± 33%
MFI (MCF-7 cell line (Breast)): 250 ± 61
% labelled cells (MDAMB231 cell line (Breast)): 49 ± 14%
MFI (MDAMB231 cell line (Breast)): 179 ± 15
% labelled cells [3]: 58 ± 14%
MFI [3]: 264 ± 14
% labelled cells (NCIH292 cell line (Lung)): 53 ± 20%
MFI (NCIH292 cell line (Lung)): 272 ± 38
% labelled cells (NCIH1703 cell line (Lung)): 33 ± 10%
MFI (NCIH1703 cell line (Lung)): 188 ± 12
% labelled cells (PANC-1 cell line (Pancreatic)): 37 ± 7%
MFI (PANC-1 cell line (Pancreatic)): 198 ± 23
% labelled cells (PSN-1 cell line (Pancreatic)): 15 ± 6%
MFI (PSN-1 cell line (Pancreatic)): 193 ± 16
% labelled cells (SCC4 cell line (Head & Neck)): 59 ± 16%
MFI (SCC4 cell line (Head & Neck)): 222 ± 88
% labelled cells (SCC9 cell line (Head & Neck)): 30 ± 23%
MFI (SCC9 cell line (Head & Neck)): 193 ± 23
% labelled cells (SCC 15 cell line (Head & Neck)): 41 ± 21%
MFI (SCC 15 cell line (Head & Neck)): 167 ± 13
% labelled cells (SW480 cell line (Colon)): 38 ± 3%
MFI (SW480 cell line (Colon)): 179 ± 1
% labelled cells (T98G cell line (GBM)): 48 ± 25%
MFI (T98G cell line (GBM)): 211 ± 20
% labelled cells (TCCSUP cell line (Urinary)): 62 ± 10%
MFI (TCCSUP cell line (Urinary)): 255 ± 48
% labelled cells (TR146 cell line (Head & Neck)): 55 ± 18%
MFI (TR146 cell line (Head & Neck)): 140 ± 4
% labelled cells (U87-MG cell line (GBM)): 38 ± 23%
MFI (U87-MG cell line (GBM)): 178 ± 35
% labelled cells (U373 cell line (GBM)): 53 ± 1%
MFI (U373 cell line (GBM)): 161 ± 7
% labelled cells (UM-UC-3 cell line (Urinary)): 26 ± 23%
MFI (UM-UC-3 cell line (Urinary)): 156 ± 14
B1: HzR022 (D-A10): humanized anti-CK8 monoclonal antibody D-A10; VL SEQ ID NO: 14, VH SEQ ID NO: 15 (antibody, V domains shown)
VH: EVQLVESGGGLVQPGGSLRLSCAASGFTFSSYWMSWVRQAPGKGLVWVSDINSDGSSTKYADSVKGRFTISRDNAKNTLYLQMNSLRAEDTAVYYCIAHYSGGGFAYWGQGTLVTVSS
VL: DIVMTQAPLSLPVTPGEPASISCRSSKSLLYSNGYNYLYWFLQKPGQSPQLLIYYMSNLASGVPDRFSGSGSGTDFTLKISRVEAEDVGVYYCMQSLEYPFTFGQGTKLEIK
modifications: VHHzD-A10; VLHzD-A10
